± gives the standard deviation of the averaged measurements.
The sequences below were run on Saccharomyces cerevisiae (assay: protein stability index of tFT-peptide fusion (C-terminal peptide) (PSI (0-1 scale)); higher = more stable (slower turnover)). Conditions: genetic background: wild type; temperature: 30 C.
Description: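 Multiplexed protein stability (MPS) profiling in S. cerevisiae. Random 12-aa peptides (tFT-X12 library) are fused to the C-terminus of a sfGFP-mCherry tandem fluorescent timer, after mCherry and a GGGS linker. Cells are FACS-sorted into 8 mCherry/sfGFP bins and deep-sequenced. The protein stability index (PSI) is the read-weighted bin average, scaled from 0 (unstable) to 1 (stable). Only peptides with >10 reads are reported; cells were grown at 30 °C in SC-His with glucose.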
Work on GSGRRGLMGRKS yielded a protein stability index of 0.728 ± 0.011.
With GSGVVCTMGWRL the protein stability index was 0.6856 ± 0.0068.
GSHRSTWGLVPL was tested, and the protein stability index was 0.696 ± 0.067.
In the case of GSLCAVWWCWRG, the protein stability index is reported as 0.6372 ± 0.0052.
GSLRLASAHGLV showed a protein stability index of 0.729 ± 0.02.
For GSPMRKHVTLLP, the protein stability index was 0.808 ± 0.12.
Sequence GSPPHTLPLHGR has a protein stability index of 0.67 ± 0.03.
GSRCSEAQDRSD showed a protein stability index of 0.713 ± 0.015.
In the case of GSRFCPHVGICI, the protein stability index is reported as 0.657 ± 0.019.
GSSPLLFSLLES gave a protein stability index of 0.751 ± 0.076.
Work on GSSRMACYCKHS yielded a protein stability index of 0.644 ± 0.051.
GSSSSLDVFVVF was tested, and the protein stability index was 0.699 ± 0.085.
For GSTLGGMAWGAR, the protein stability index was 0.682 ± 0.014.
In the case of GSTLWGMAWGAR, the protein stability index is reported as 0.694 ± 0.017.
GSTRWGSAEGRG gave a protein stability index of 0.662 ± 0.21.
GSVCCLSLHCFV was tested, and the protein stability index was 0.62 ± 0.033.
GSYIPSPKKNKC gave a protein stability index of 0.7086 ± 0.0029.
With GSYRSSPFKDPK the protein stability index was 0.686 ± 0.037.
In the case of GTDEWKRKYNTP, the protein stability index is reported as 0.695 ± 0.045.
GTDSFQTTRRLI showed a protein stability index of 0.663 ± 0.022.
GTGPPPSPPSLP gave a protein stability index of 0.683 ± 0.091.
GTHFRPAREERV showed a protein stability index of 0.708 ± 0.039.
Work on GTHGQAQRVAGQ yielded a protein stability index of 0.7248 ± 0.0061.
GTIEFNKIEDFW showed a protein stability index of 0.715 ± 0.039.
For GTLAAGGGVPMS, the protein stability index was 0.734 ± 0.034.
For GTLARFLTHFNP, the protein stability index was 0.666 ± 0.048.
GTLRLLYLKTSK showed a protein stability index of 0.651 ± 0.009.
In the case of GTLSLAACLSEN, the protein stability index is reported as 0.657 ± 0.077.
GTRAVSKLNPDA was tested, and the protein stability index was 0.701 ± 0.02.
With GTRRHSFCSGTG the protein stability index was 0.703 ± 0.054.
In the case of GTSERKVLNRKR, the protein stability index is reported as 0.764 ± 0.015.
Sequence GTSVGVRRKGVK has a protein stability index of 0.708 ± 0.033.
In the case of GTTLDEPGESGR, the protein stability index is reported as 0.621 ± 0.023.
For GVAAGPAVRVLT, the protein stability index was 0.669 ± 0.032.
Work on GVAGGLLLRGGR yielded a protein stability index of 0.673 ± 0.13.
GVAYSIVKKKKK gave a protein stability index of 0.684 ± 0.036.
GVCTGSFVFYLT gave a protein stability index of 0.686 ± 0.016.
Work on GVEAGMGRTLWL yielded a protein stability index of 0.792 ± 0.099.
For GVEGAVGGRRGA, the protein stability index was 0.703 ± 0.029.
GVEGLGAFVTVQ was tested, and the protein stability index was 0.702 ± 0.0089.
GVENAHLFYLYL gave a protein stability index of 0.63579 ± 0.00058.
Work on GVEVCEGDGPLK yielded a protein stability index of 0.669 ± 0.015.
With GVGGGSSWVGYG the protein stability index was 0.912 ± 0.063.
GVGGGVRLVVSR gave a protein stability index of 0.633 ± 0.052.
Sequence GVGGRVRDALGM has a protein stability index of 0.68 ± 0.066.
GVGLIGVLTCGL was tested, and the protein stability index was 0.636 ± 0.02.
For GVGLVLLGVVSG, the protein stability index was 0.513 ± 0.025.
In the case of GVGRGCVLNGGG, the protein stability index is reported as 0.743 ± 0.018.
GVGVWQWERGRG showed a protein stability index of 0.789 ± 0.1.
GVICALPPVVGR gave a protein stability index of 0.685 ± 0.071.
In the case of GVLGCNDGSVVE, the protein stability index is reported as 0.663 ± 0.059.
In the case of GVLRPVWVLGGS, the protein stability index is reported as 0.624 ± 0.017.
For GVLSLFLLDTSQ, the protein stability index was 0.7376 ± 0.0061.
For GVLVESGSVESR, the protein stability index was 0.744 ± 0.12.
Sequence GVPALLVGIDLV has a protein stability index of 0.668 ± 0.027.
With GVPFSLGPPPSR the protein stability index was 0.669 ± 0.022.
GVPVVCGPPPFL showed a protein stability index of 0.748 ± 0.091.
Work on GVQEGGGGARGG yielded a protein stability index of 0.633 ± 0.023.
GVRAPPSPVSGL gave a protein stability index of 0.6711 ± 0.0066.
With GVRGGGAVGGLR the protein stability index was 0.65 ± 0.056.
Sequence GVRHPRLMFSRS has a protein stability index of 0.687 ± 0.02.
GVRIGYCIVRDV gave a protein stability index of 0.647 ± 0.022.
In the case of GVRIVRRGLRRV, the protein stability index is reported as 0.731 ± 0.013.
With GVRKGEESGVGW the protein stability index was 0.717 ± 0.0085.
GVSAGGAGLGGS showed a protein stability index of 0.773 ± 0.0031.
Sequence GVSAGLRGGGGA has a protein stability index of 0.651 ± 0.022.
Work on GVSHKKGCPWLG yielded a protein stability index of 0.641 ± 0.043.
Sequence GVSKALAAAVDA has a protein stability index of 0.6874 ± 0.0061.
Work on GVSVSPVVHFFL yielded a protein stability index of 0.73 ± 0.062.
With GVSWVGGRVFGG the protein stability index was 0.6964 ± 0.0051.
GVVGGGVQGGMG was tested, and the protein stability index was 0.624 ± 0.0046.
GVVRTSWGEALR gave a protein stability index of 0.7065 ± 0.0061.
GVVRWGRVVGCF gave a protein stability index of 0.631 ± 0.084.
Sequence GVWQGVGVRGWG has a protein stability index of 0.83 ± 0.096.
Work on GWCALGVRAILY yielded a protein stability index of 0.651 ± 0.0097.
For GWCRVFLNFLMW, the protein stability index was 0.61142 ± 0.00012.
GWCVGHSVLVVE was tested, and the protein stability index was 0.618 ± 0.021.
GWGCARRRGGRV showed a protein stability index of 0.683 ± 0.015.
GWGGEGQNGSEG gave a protein stability index of 0.638 ± 0.019.
GWGGFQFECGWV gave a protein stability index of 0.651 ± 0.059.
Work on GWGGGSMDLRDR yielded a protein stability index of 0.702 ± 0.011.
For GWGGSIGEEWGG, the protein stability index was 0.687 ± 0.022.
GWGPWGRVGRGG was tested, and the protein stability index was 0.688 ± 0.032.
GWLGGGGVVWWG was tested, and the protein stability index was 0.718 ± 0.017.
With GWMLGAVRRGVI the protein stability index was 0.694 ± 0.032.
GWMSGTPEFLGS was tested, and the protein stability index was 0.707 ± 0.025.
GWPVSICGSTQN gave a protein stability index of 0.754 ± 0.058.
Sequence GWQLWGFCLSGP has a protein stability index of 0.637 ± 0.032.
With GWRGGGSDGGLR the protein stability index was 0.718 ± 0.086.
In the case of GWSCRGVGGGLG, the protein stability index is reported as 0.708 ± 0.045.
With GWVGGCGCGRGI the protein stability index was 0.694 ± 0.034.
GWVRCGGGAGVG gave a protein stability index of 0.622 ± 0.056.
GWVWILGRGRGR showed a protein stability index of 0.637 ± 0.044.
GWWGGCRSGVPE gave a protein stability index of 0.672 ± 0.069.
In the case of GYADDEEEYVTL, the protein stability index is reported as 0.737 ± 0.023.
GYETTQSGFLSS gave a protein stability index of 0.5887 ± 0.0022.
With GYLVPLPSSGSS the protein stability index was 0.661 ± 0.057.
GYNTSMHVQYQT showed a protein stability index of 0.764 ± 0.02.

From the supplement of paper PMC10724198
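Also: PSI is a weighted mean of sequencing reads over stability bins, variants kept only with over 10 reads, mCherry proximal and sfGFP distal, peptide attached via GGGS linker.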
